How the values were obtained:
EGFP-GL261 glioma = assay: Intracranial EGFP-GL261 glioma implantation in C57BL/6 mice; format: in vivo, mouse
Description: Adult C57BL/6 mice (12-16 wk) were anesthetized with an i.p. injection of ketamine (75 mg/kg) and medetomidine (1 mg/kg). EGFP-GL261 glioma cells, shGM-CSF glioma cells or shNeg glioma cells (8×10^4 cells in 1 μl of DMEM) were inoculated in a right striatum using 1-μl syringe with a 26-gauge needle in a stereotactic apparatus according to the coordinates (+1.5 mm AP, −1.5 mL). Mice were resuscitated using i.p. administration of atipamazole and […] Tolfedine 4% (4 mg/kg s.c.). At day 15th after glioma implantation, the animals were anesthetized, sacrificed and perfused with PBS or PBS and 4% paraformaldehyde in PBS. The brains were removed and minced or post-fixed for 24 h in the same fixative solution and placed in 30% sucrose in PBS at 4° C. Next, brains were frozen with dry CO2 and serial 20-μm-thick coronal sections were collected using a cryostat. Images were acquired using a Leica DM4000B microscope.
Tumor areas in coronal sections were measured using Image Pro-Plus software in an every second brain slice and tumor volumes were calculated according to the Cavalieri principle.
Staining with anti-Iba1 and anti-vWF antibodies was performed to detect microglia/macrophages and blood vessels, respectively. Sections were incubated with 0.5% H2O2 in PBS for 30 min at RT, permeabilized and blocked with 10% donkey serum with the addition of 0.3% Triton X-100 in PBS, and then incubated with the primary antibodies: anti-Iba-1 (rabbit, polyclonal, WAKO, 1:1000) or anti-vWF (rabbit, polyclonal, Abcam, 1:1000) for 24 h at 4° C. and with the secondary goat anti-rabbit biotinylated IgG for 2 hr at RT. The primary and secondary antibodies were diluted in PBS containing 0.1% Triton X-100 and 3% donkey serum. The sections were exposed to extravidin-peroxidase complex (1:200) for 1 h at RT and peroxidase activity was visualized with 0.02% 3.3′-diaminobenzidine (DAB) and 0.01% H2O2 in Tris buffer (pH 7.6). Sections were dehydrated and mounted with Histofluid (Sigma, Germany). […]

[1] = system: EGFP-GL261 glioma cells in murine brain slices; assay: Tumor invasion in organotypical brain slice cultures; format: cell-based, mouse; settings: 5d after injection; FIGS. 12A and B
Description: The organotypical brain slice cultures were obtained from 16-day-old male C57/BL6 mice (animal breeding facility, Schonwalde, Germany). The brain slices cut into 250 μm sections were transferred to a Transwell insert in a 6-well plate (Becton Dickinson, Lincoln Park, N.J., USA) and were incubated in 1 ml of DMEM (Gibco, Gaithersburg, Md., USA) supplemented with 10% FCS (Atlanta Biological, USA), 0.2 mM glutamine and antibiotics. After overnight equilibration, medium was exchanged for the cultivation medium containing 25% FCS, 50 mM sodium bicarbonate, 2% glutamine, 25% Hanks balanced salt solution, 1 μg/ml insulin (all from Gibco, Gaithersburg, Md., USA), 2.46 mg/ml glucose (Braun Melsungen AG, Germany), 0.8 μg/ml vitamin C (Sigma-Aldrich, Germany), 5 mM Tris and antibiotics. Slices were injected with 10,000 GFP-GL261 glioblastoma cells (in 0.5 μl) using a syringe mounted to a micromanipulator. […]
To investigate whether GM-CSF expression influences microglia dependent invasion or directly affects glioma invasion, an organotypic brain slice culture was used as a model. Control or GM-CSF-depleted EGFP-GL261 glioma cells were injected into murine brain slices and resulting tumor size was quantified 5d after injection by measuring the projected fluorescent area covered by the EGFP-glioma cells within the slice. […]

EGFP-GL261 glioma cells [2] = assay: MTT metabolism test of glioma cells expressing shGM-CSF; format: cell-based, mouse; settings: FIG. 10D
Excerpt: To check if glioma-derived GM-CSF is responsible for recruitment of microglia/macrophages to gliomas and for tumor growth, EGFP-GL261 glioma cells stably depleted of GM-CSF were generated by over-expressing plasmids encoding specific shRNA. Silencing of GM-CSF expression at the mRNA level (FIG. 10A) and at the protein level (FIG. 10B) in two independently derived clones was confirmed by qPCR and ELISA. Two clones derived in parallel and expressing negative shRNA served as controls.

EGFP-GL261 glioma cells [3] = assay: BrdU incorporation of glioma cells expressing shGM-CSF; format: cell-based, mouse; settings: FIG. 10C
[4] = system: intracranial GL261 gliomas; assay: Survival of mice with intracranial gliomas (Kaplan-Meier); format: in vivo, mouse
Description: Mice were randomly assigned to receive intracranial implantation of shNeg or shRNA glioma cells and observed until becoming moribund. EGFP-GL261 glioma cells, shGM-CSF glioma cells or shNeg glioma cells were inoculated in a right striatum using a syringe with a 26-gauge needle in a stereotactic apparatus according to the coordinates (+1.5 mm AP, −1.5 mL). Mice were resuscitated using i.p. administration of atipamazole and treated with the Tolfedine 4% (4 mg/kg s.c.) analgesic. Kaplan-Meier analysis of mice implanted with shGM-CSF and shNeg glioma cells (n=10 mice per group) was performed.
Two mice having shGM-CSF-gliomas were alive 63 days post implantation.

C6 glioma = C6 glioma implantation into striatum of Wistar rats; format: in vivo, rat; settings: 15 days after implantation, FIG. 19C
Description: RNA was isolated from rat C6 glioma clones stably expressing shRNA against osteopontin cells and cDNA was synthesized using reverse-transcriptase and random hexamer primers. Knock down efficiency of osteopontin was confirmed by Real Time PCR (FIG. 19A). C6 glioma cells expressing control shRNA (shNeg) or glioma cells depleted of osteopontin (shSPP1) (5×10^4 cells/2.5 μl of DMEM) were implanted into the right striatum of 8-10 weeks old Wistar rats. 15 days after glioma implantation, the animals were sacrificed and intracardially perfused with 4% paraformaldehyde. The brains were removed, frozen with dry CO^2 and serial 20- or 12-μm-thick coronal sections were collected using a cryostat. To quantify the tumor size, 20 μm-thick sections were stained with toluidine blue, images were acquired using a Leica DM4000B microscope. Tumor areas were measured using ImageJ software in an every fourth brain slice and tumor volumes were calculated according to the Cavalieri principle (Gabrusiewicz et al, 2011). […] Moreover, gliomas from implanted C6-Neg were of similar sizes as WT C6 cells (n=5, 28.33±14.53 mm^3). […] Results are expressed as the means±s.d. from 2 independent experiments (U-Mann-Whitney test).

microglia cells = assay: qPCR of GCM-induced genes in microglia exposed to GCM of shRNA-expressing C6 glioma cells; format: cell-based, rat; settings: FIG. 7D
Description: Total RNA (2 μg) isolated from microglia cultures untreated or treated for 6 h with LPS or G-CM was used as a template to generate cDNA. As endogenous control 18S (Hs99999901_s1) rRNA was applied. Gene expression quantification was performed using the Applied Biosystem TaqMan® The real time amplifications were performed in duplicates in a 20 μl reaction volume containing 2×SYBR PCR MasterMix and a set of primers designed using PRIMER EXPRESS software for the following genes: iNOS, COX-2, II1beta, TNF alpha, MMP-2, MMP-9, MMP-14, Arg1, Id1 and c-Myc. The amount of target mRNA was first normalized to the 18S RNA expression level and then to a control. Data were analysed by the Relative Quantification (^ΔΔCt) method using 7500 System SDS software (Applied Biosystems). The expression of each product was normalized to 18S rRNA and is shown as the ratio of the target gene to 18S gene expression, calculated by 2^−ΔΔCt.
To investigate the role of identified proteins in GCM-induced activation of microglia cells, stable C6 glioma cell lines expressing shRNAs specific to osteopontin (shSPP1), or a control, negative shRNA (shNeg) were generated. Silencing efficiency was approximately 98.5% (FIGS. 7A and C). Silencing of […] inhibited GCM-induced expression c-Myc and smad7 in microglia cells (FIG. 7B). […]

C6 glioma cells = assay: Matrigel matrix invasion of C6 glioma cells in presence of microglia; format: cell-based, rat; settings: laser scanning cytometry; FIG. 7E
Description: The invasion assay was performed as described (Wesolowska et al. 2008, Kwiatkowska et al. 2011). Briefly, 24-well tissue culture inserts (12 μm pore size Transwell, Corning, N.Y., USA) were coated with the Growth Factor Reduced Matrigel™ Matrix (BD Biosciences, San Diego. Calif., USA). 100 μl of the Matrigel™ Matrix (1 mg/ml) diluted in distilled water, was dried under sterile conditions (37° C.) for 5-6 hours and reconstituted for 30 minutes in 200 μl of culture medium. C6 glioma cells (1.5×10^4/insert) were seeded on Matrigel-coated membrane in the serum-reduced medium (2% FBS) and exposed to microglia or left untreated. After 48 h cells were fixed and cell nuclei stained with DAPI. The membranes from Transwell® inserts were cut out and the total number of cells that migrated through the Matrigel was determined using Laser Scanning Cytometry (LSC, CompuCyte). All experiments were performed in triplicate. The data from three independent experiments were pooled and expressed as the average number of cells±S.D.
To investigate the role of identified proteins in GCM-induced activation of microglia cells, stable C6 glioma cell lines expressing shRNAs specific to osteopontin (shSPP1), or a control, negative shRNA (shNeg) were generated. Silencing efficiency was approximately 98.5% (FIGS. 7A and C). […]

[5] = system: osteopontin (spp1) mRNA in C6 glioma cells; assay: qPCR of osteopontin silencing in stable C6 glioma clones; format: cell-based, rat; settings: stable C6 glioma cell lines; FIGS. 7A and C
Description: Forward and reverse oligonucleotides were incubated in 0.1 M NaCl for 3 min at 94° C., followed by slow cooling to 37° C. for 1 h. The annealed DNA was ligated with pSilencer 2.0-U6 (Ambion, Germany) at BamHI and HindIII sites. After transformation into E. coli, plasmids were amplified, isolated and the sequences were verified by sequencing. The pSilencer-spp1, pSilencer-mfg8 pSilencer-GM-CSF and pSilencer 2.0-U6 Negative Control (Ambion) vectors were purified with Qiagen Plasmid Maxi Kit and 1.6 μg of each DNA was transfected into cells using 2 μl Lipofectamine-2000 (Invitrogen, UK). One day after transfection, hygromycin B (200 μg/ml) was added. Resistant clones were picked after 2 weeks and analysed for expression of appropriate mRNA by qRT-PCR.
RNA was isolated with RNeasy Mini Kit (Qiagen). First-strand cDNA was synthesized from 2 μg of total RNA (DNase-treated) in a 20 μl reverse transcriptase reaction mixture. […] The expression of Osteopontin, and lactadherin in C6 rat glioma cells and primary astrocytes was evaluated using qPCR. The expression of GM-CSF in GL261 glioma cells and primary astrocytes was evaluated using qPCR. […]
Reaction volume (20 μl) consisted of cDNA equivalent to 50 ng RNA, 1×SYBR Green PCR master mix (Applied Biosystems) and 0.9 μM of each primer. […] Relative quantification of gene expression was determined using the comparative CT method. […]

Row | Molecule | number of microglia/macrophages (anti-Iba-1 staining) (EGFP-GL261 glioma; vs control gliomas (shNeg), FIGS. 11A and B) | formation of tumor vessels (anti-vWF staining) (EGFP-GL261 glioma; vs controls, FIG. 11C) | reduction of tumor size (EGFP-GL261 glioma; vs shNeg glioma cells, day 15, FIG. 11D-E) [%] | average tumor size smaller than controls (fluorescent area) [1] [%] | survival of glioma cells (MTT metabolism) (EGFP-GL261 glioma cells [2]) | proliferation of glioma cells (BrdU incorporation) (EGFP-GL261 glioma cells [3]) | mice alive 63 days post implantation ([4]; 63 days post implantation) | survival of mice ([4]; n=10 mice per group, FIG. 16) | tumor volume (mean value) (C6 glioma) [mm^3] | reduction in tumor volumes (C6 glioma; vs C6-Neg) [%] | GCM-induced expression arg-1 and smad7 in microglia cells (microglia cells) | microglia-dependent invasion of glioma cells through Matrigel (C6 glioma cells) | Silencing efficiency [5]
1 | shGM-CSF: shRNA to mouse GM-CSF, oligonucleotides SEQ ID NO: 23 and 24, stably expressed in EGFP-GL261 glioma cells (nucleic acid) chain 1: GATCCCGGAAACGGACTGTGAAACATTCAAGAGATGTTTCACAGTCCGTTTCCGGTTTTTTGGAAA chain 2: AGCTTTTCCAAAAAACCGGAAACGGACTGTGAAACATCTCTTGAATGTTTCACAGTCCGTTTCCGG | reduced number | reduced formation | 65 | 58 | did not affect | did not affect | Two | significant survival benefit | – | – | – | – | –
2 | shSPP1: shRNA specific to rat osteopontin, oligonucleotides SEQ ID NO: 21 and 22, stably expressed in C6 glioma cells (nucleic acid, the letters are possibly those of the target site) chain 1: GATCCAGCTAGTCCTAGACCCTAATTCAAGAGATTAGGGTCTAGGACTAGCTTGTTTTTTGGAAA chain 2: AGCTTTTCCAAAAAACAAGCTAGTCCTAGACCCTAATCTCTTGAATTAGGGTCTAGGACTAGCTG | – | – | – | – | – | – | – | – | 6.03 | 88 | inhibited | strongly reduces | approximately 98.5%

— patent US9453050B2, “Compositions for treating glioma” (GLIA SP Z.O.O., priority 2011, dated 2016)
